The results in this text go back to paper PMC9482650, “Quantitative fragmentomics allow affinity mapping of interactomes” (Nature Communications, 2022).

Targets include Q12923; Q6ZWJ1; Q9ULJ8; Q13368; Q9C0E4; Q9UMS6; O00560; Q8IUC4; Q8TEW0; Q92614; O43166; Q96HC4; Q96JB8; Q5TCQ9; Q9NR12; Q70Z35; Q9Y3R0; Q9NPB6; Q9UDY2; O60759; Q96JY6; O75970; NHERF4_3, Q86UT5; Q8TDM6; Q8TB45; LNX1_4, Q8TBB1.
Assay in all cases: holdup assay
Parameters in all cases: key: below the threshold = too weak to quantify, mostly under pKd 3.1 to 4
Holding throughout (conditions): plain residues with an end cap or a label only (N-terminal biotin on a linker: ttds)

Another assay has as its target T1, LNX2_1, Q8N448.
T1 sequence (Q8N448 228-328, limits assumed, looked up): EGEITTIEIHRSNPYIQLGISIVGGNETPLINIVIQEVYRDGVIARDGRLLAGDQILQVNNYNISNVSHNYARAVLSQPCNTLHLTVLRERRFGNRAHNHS

NHERF4_3, Q86UT5, sequence (Q86UT5 325-412): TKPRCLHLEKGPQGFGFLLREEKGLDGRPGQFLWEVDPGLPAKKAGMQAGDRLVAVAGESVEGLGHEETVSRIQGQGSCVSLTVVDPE
LNX1_4, Q8TBB1, sequence (Q8TBB1 631-726): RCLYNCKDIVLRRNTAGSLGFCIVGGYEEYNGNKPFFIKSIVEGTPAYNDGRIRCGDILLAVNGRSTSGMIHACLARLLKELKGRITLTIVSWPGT

B1: KIR3DL3, Q8N743 (peptide)
chain: PKTPPTDTSV
On to B1, for which the pKd entry in the assay with Q12923, in the assay with Q6ZWJ1, in the assay with Q9ULJ8, with Q13368, with Q9C0E4 and in the assay with Q9UMS6 was “below the threshold” in each case. Further, the pKd entry with O00560, with Q8IUC4, with Q8TEW0, in the assay with Q92614, with O43166 and in the assay with Q96HC4 was “below the threshold” in each case. Further, the pKd entry with Q96JB8, with Q5TCQ9, with Q9NR12, with Q70Z35, in the assay with Q9Y3R0 and with Q9NPB6 was “below the threshold” each time. Further, the pKd entry with Q9UDY2, with O60759, with Q96JY6 and in the assay with O75970 was “below the threshold” each time.

B2: HPV67-E6, A4U7F2 (peptide)
chain: SRPQRTQTQV
Take B2: the pKd – broadly, the negative decadic logarithm of the Kd, by convention in mol/L – with NHERF4_3, Q86UT5 is given as “below the threshold”.

B3: TJP2, Q9UDY2 (peptide)
chain: QSARYRDTEL
Take B3: the pKd entry in the assay with Q12923, with Q6ZWJ1, in the assay with Q9ULJ8, with Q13368, in the assay with Q9C0E4 and with Q9UMS6 was “below the threshold” throughout. Also, the pKd result in the assay with O00560, with Q8IUC4, with Q8TEW0, with Q92614, with O43166 and with Q96HC4 was “below the threshold” each time. The negative logarithm of the Kd (pKd) entry in the assay with Q96JB8 is “below the threshold”; in the assay with NHERF4_3, Q86UT5, “below the threshold”; with Q5TCQ9, “below the threshold”; with Q9NR12, “below the threshold”; with Q70Z35 it was “below the threshold”; in the assay with Q9Y3R0, “below the threshold”. In addition, the pKd result with Q9NPB6, with Q9UDY2, in the assay with O60759, in the assay with Q96JY6 and in the assay with O75970 was “below the threshold” each time.

B4: ABCC4, O15439 (peptide)
chain: STLTIFETAL
Take B4: the pKd result with Q12923, with Q6ZWJ1, with Q9ULJ8, in the assay with Q13368, with Q9C0E4 and in the assay with Q9UMS6 was “below the threshold” throughout. The pKd entry with O00560, with Q8IUC4, in the assay with Q8TEW0, in the assay with Q92614, with O43166 and with Q96HC4 was “below the threshold” throughout. Moreover, the pKd result with Q96JB8, with Q5TCQ9, in the assay with Q9NR12, with Q70Z35, in the assay with Q9Y3R0 and with Q9NPB6 was “below the threshold” throughout. In addition, the pKd entry in the assay with Q9UDY2, in the assay with O60759, in the assay with Q96JY6 and with O75970 was “below the threshold” each time.

B5: CYSLTR2, Q9NS75 (peptide)
chain: SVWLRKETRV
Take B5: the pKd entry in the assay with Q8TDM6, with Q12923, with Q6ZWJ1, in the assay with Q9ULJ8, with Q13368 and with Q9C0E4 was “below the threshold” throughout. For the same molecule, the pKd entry in the assay with Q9UMS6, in the assay with O00560, with Q8TB45, in the assay with Q8IUC4, in the assay with Q8TEW0 and with Q92614 was “below the threshold” each time. In addition, the pKd entry is “below the threshold” with O43166; “below the threshold” with Q96HC4; “below the threshold” in the assay with Q96JB8; “below the threshold” in the assay with NHERF4_3, Q86UT5; “below the threshold” with Q5TCQ9; “below the threshold” with Q9NR12. Besides, the negative-log Kd (pKd) result with Q70Z35, with Q9Y3R0, in the assay with Q9NPB6, with Q9UDY2, in the assay with O60759 and with Q96JY6 was “below the threshold” in each case. Further, the pKd result with O75970 is “below the threshold”.

B6: HPV16-E6, P03126 (peptide)
chain: SSRTRRETQL
For B6, the negative logarithm of the Kd (pKd) entry with LNX2_1, Q8N448 is “below the threshold”; with LNX1_4, Q8TBB1, “below the threshold”; with NHERF4_3, Q86UT5, 4.13.

B7: GRASP, Q7Z6J2 (peptide)
chain: RSLEEEESQL
As for B7, the pKd result with Q12923, in the assay with Q6ZWJ1, in the assay with Q9ULJ8, in the assay with Q13368, in the assay with Q9C0E4 and in the assay with Q9UMS6 was “below the threshold” in each case. Also, the pKd entry with O00560, with Q8IUC4, with Q8TEW0, with Q92614, in the assay with O43166 and with Q96HC4 was “below the threshold” each time. Also, the pKd entry with Q96JB8 is “below the threshold”; with NHERF4_3, Q86UT5, “below the threshold”; in the assay with Q5TCQ9 it was “below the threshold”; with Q9NR12, “below the threshold”; in the assay with Q70Z35, “below the threshold”; with Q9Y3R0, “below the threshold”. The pKd result with Q9NPB6, with Q9UDY2, with O60759, with Q96JY6 and with O75970 was “below the threshold” throughout.
